Reference: US20230127694A1, “NEUROPROTECTIVE PEPTIDE” (published 2023)
Non-standard residues stand in square brackets, D forms with d. No end group written: not given here.

Target: ERK1 MAP kinase (MAPK3), mouse (mouse, UniProt Q63844)
Assay: cell-based or functional assay

## Ac-GRKKRRQRRRPPQGGGGGEPRRTEGVGPGVPGEVEMVKGQPFD[dV] [CPP-RB5]
  EC50 of phospho-ERK positive cells in striatal slices (immunohistochemistry, dose response): 3.4 µM
